According to paper PMC2905227 (Journal of the American Chemical Society, 2010):

Experiments:
Experiment in all cases: competitive inhibition of enzyme activity
[1] = target: T1, [NO2Y730]-α2(Y731A) (E. coli, UniProt P00452 1-761, Y731A, 3-nitrotyrosine (NO2Y) in place of Y730)
T1 sequence (looked up): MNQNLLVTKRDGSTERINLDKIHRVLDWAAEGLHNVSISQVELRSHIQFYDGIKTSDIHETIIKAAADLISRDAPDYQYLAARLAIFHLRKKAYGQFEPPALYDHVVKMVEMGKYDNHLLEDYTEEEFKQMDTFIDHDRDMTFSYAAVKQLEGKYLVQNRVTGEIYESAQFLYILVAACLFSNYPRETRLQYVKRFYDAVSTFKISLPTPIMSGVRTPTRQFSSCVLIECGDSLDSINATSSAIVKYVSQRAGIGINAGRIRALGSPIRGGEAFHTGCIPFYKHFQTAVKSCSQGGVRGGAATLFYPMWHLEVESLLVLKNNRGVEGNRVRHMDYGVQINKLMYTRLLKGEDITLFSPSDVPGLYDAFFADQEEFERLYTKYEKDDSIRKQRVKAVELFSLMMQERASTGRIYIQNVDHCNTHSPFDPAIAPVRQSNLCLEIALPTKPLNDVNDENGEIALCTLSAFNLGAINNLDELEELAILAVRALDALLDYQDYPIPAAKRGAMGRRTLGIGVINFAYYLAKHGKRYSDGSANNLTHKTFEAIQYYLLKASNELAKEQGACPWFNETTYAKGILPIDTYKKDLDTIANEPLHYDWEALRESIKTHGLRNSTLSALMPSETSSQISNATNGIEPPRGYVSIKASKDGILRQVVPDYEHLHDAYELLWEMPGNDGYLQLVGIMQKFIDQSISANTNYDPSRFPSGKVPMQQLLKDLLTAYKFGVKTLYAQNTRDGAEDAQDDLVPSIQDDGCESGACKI

[2] = target: T2, [NO2Y730]-α2(Y731F) (E. coli, UniProt P00452 1-761, Y731F, 3-nitrotyrosine (NO2Y) in place of Y730)
T2 sequence (looked up): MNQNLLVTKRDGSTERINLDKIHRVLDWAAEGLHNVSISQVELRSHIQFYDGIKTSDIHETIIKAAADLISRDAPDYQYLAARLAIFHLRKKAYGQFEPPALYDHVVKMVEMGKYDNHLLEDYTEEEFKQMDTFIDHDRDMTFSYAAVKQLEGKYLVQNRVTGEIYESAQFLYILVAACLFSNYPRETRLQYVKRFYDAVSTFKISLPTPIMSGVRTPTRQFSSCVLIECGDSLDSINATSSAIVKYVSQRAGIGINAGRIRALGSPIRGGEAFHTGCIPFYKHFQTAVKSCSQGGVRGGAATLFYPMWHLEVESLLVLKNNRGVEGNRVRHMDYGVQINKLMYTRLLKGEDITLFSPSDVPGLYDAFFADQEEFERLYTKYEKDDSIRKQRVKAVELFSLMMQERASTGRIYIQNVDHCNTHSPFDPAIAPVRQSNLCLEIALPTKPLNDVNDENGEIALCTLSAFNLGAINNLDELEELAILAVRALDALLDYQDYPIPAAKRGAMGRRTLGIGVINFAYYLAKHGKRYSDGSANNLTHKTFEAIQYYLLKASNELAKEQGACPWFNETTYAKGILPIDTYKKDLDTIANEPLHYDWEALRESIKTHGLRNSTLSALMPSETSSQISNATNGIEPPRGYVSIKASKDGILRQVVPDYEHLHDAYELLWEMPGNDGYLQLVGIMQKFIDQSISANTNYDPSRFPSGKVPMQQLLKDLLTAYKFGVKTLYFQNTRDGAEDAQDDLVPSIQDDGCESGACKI

[3] = target: T3, [NO2Y731]-α2(Y730F) (E. coli, UniProt P00452 1-761, Y730F, 3-nitrotyrosine (NO2Y) in place of Y731)
T3 sequence (looked up): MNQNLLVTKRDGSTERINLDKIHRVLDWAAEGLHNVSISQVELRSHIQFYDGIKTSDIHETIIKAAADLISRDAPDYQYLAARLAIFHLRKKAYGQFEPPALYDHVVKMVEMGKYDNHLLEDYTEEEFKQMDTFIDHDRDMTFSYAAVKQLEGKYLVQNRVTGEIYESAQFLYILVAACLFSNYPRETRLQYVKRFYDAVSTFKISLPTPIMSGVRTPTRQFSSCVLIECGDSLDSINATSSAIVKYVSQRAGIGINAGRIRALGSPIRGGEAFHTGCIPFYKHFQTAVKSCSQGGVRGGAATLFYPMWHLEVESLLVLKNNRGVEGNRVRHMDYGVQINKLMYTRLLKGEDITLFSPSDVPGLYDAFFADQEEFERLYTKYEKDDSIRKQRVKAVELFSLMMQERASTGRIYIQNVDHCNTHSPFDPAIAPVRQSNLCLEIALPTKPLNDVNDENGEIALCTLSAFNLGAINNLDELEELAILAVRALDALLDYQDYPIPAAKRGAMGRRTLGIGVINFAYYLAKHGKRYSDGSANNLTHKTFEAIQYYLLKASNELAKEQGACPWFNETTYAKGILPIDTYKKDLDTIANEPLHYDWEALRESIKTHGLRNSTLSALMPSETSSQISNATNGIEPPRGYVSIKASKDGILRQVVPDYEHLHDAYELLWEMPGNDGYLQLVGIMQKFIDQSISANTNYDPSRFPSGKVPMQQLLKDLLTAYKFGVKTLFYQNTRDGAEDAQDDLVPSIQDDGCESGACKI

Kd [1]: 2710 ± 130 nM
Kd [2]: 1450 ± 140 nM
Kd [3]: 500 ± 40 nM
B1: wild-type E. coli ribonucleotide reductase β2 subunit (enzyme, UniProt P69924 1-376, looked up)
chain: MAYTTFSQTKNDQLKEPMFFGQPVNVARYDQQKYDIFEKLIEKQLSFFWRPEEVDVSRDRIDYQALPEHEKHIFISNLKYQTLLDSIQGRSPNVALLPLISIPELETWVETWAFSETIHSRSYTHIIRNIVNDPSVVFDDIVTNEQIQKRAEGISSYYDELIEMTSYWHLLGEGTHTVNGKTVTVSLRELKKKLYLCLMSVNALEAIRFYVSFACSFAFAERELMEGNAKIIRLIARDEALHLTGTQHMLNLLRSGADDPEMAEIAEECKQECYDLFVQAAQQEKDWADYLFRDGSMIGLNKDILCQYVEYITNIRMQAVGLDLPFQTRSNPIPWINTWLVSDNVQVAPQEVEVSSYLVGQIDSEVDTDDLSNFQL
modifications: tyrosyl radical at Y122 (1-1.2 radicals per β2), diferric cluster
